Assay in all cases: MHC II competition binding assay
Test [1] deals with T1, purified recombinant MHC II protein, allele DRB1*1501 (human).
T1 construct: bought from Benaroya Research Institute; also called MHC-II DR molecule

Test [2] has as its target T2, purified recombinant MHC II protein, allele DRB1*0701 (human).
T2 construct: bought from Benaroya Research Institute; also called MHC-II DR molecule

Test [3] concerns the target T3, purified recombinant MHC II protein, allele DRB1*0101 (human).
T3 construct: bought from Benaroya Research Institute; also called MHC-II DR molecule

In test [4] the target is T4, purified recombinant MHC II protein, allele DRB1*0401 (human).
T4 construct: bought from Benaroya Research Institute; also called DR4; MHC-II DR molecule

Test [5] deals with T5, purified recombinant MHC II protein, allele DRB1*1101 (human).
T5 construct: bought from Benaroya Research Institute; also called MHC-II DR molecule

The target of test [6] is T1, purified recombinant MHC II protein, …. The source holds these as a separate data set.
The target of test [7] is T6, purified recombinant MHC II protein, allele DRB1*1301 (human).
T6 construct: bought from Benaroya Research Institute; also called MHC-II DR molecule

Test [8] deals with T2, purified recombinant MHC II protein, …. This is another data set of the same source.
Test [9] addresses T7, purified recombinant MHC II protein, allele DRB1*0301 (human).
T7 construct: bought from Benaroya Research Institute; also called MHC-II DR molecule

For test [10], the target named is T8, purified recombinant MHC II protein, allele DRB1*0801 (human).
T8 construct: bought from Benaroya Research Institute; also called MHC-II DR molecule

Test [11] has as its target T3, purified recombinant MHC II protein, …. The source holds these as a separate data set.
The target of test [12] is T4, purified recombinant MHC II protein, …. The source holds these as a separate data set.
Test [13] addresses T5, purified recombinant MHC II protein, …. The source holds these as a separate data set.
Test [14] concerns the target T2, purified recombinant MHC II protein, …. The source holds these as a separate data set.
The target in test [15] is T8, purified recombinant MHC II protein, …. This is another data set of the same source.
Test [16] deals with T3, purified recombinant MHC II protein, …. The source holds these as a separate data set.
Test [17] has as its target T5, purified recombinant MHC II protein, …. This is another data set of the same source.
Test [18] deals with T1, purified recombinant MHC II protein, …. This is another data set of the same source.
In test [19] the target is T6, purified recombinant MHC II protein, …. The source holds these as a separate data set.
Test [20] concerns the target T2, purified recombinant MHC II protein, …. This is another data set of the same source.
The target of test [21] is T7, purified recombinant MHC II protein, …. The source holds these as a separate data set.
The target in test [22] is T3, purified recombinant MHC II protein, …. This is another data set of the same source.
Test [23] deals with T4, purified recombinant MHC II protein, …. This is another data set of the same source.
In test [24] the target is T5, purified recombinant MHC II protein, …. The source holds these as a separate data set.
Test [25] has as its target T8, purified recombinant MHC II protein, …. This is another data set of the same source.
Test [26] has as its target T1, purified recombinant MHC II protein, …. The source holds these as a separate data set.
In test [27] the target is T6, purified recombinant MHC II protein, …. The source holds these as a separate data set.
Test [28] deals with T8, purified recombinant MHC II protein, …. This is another data set of the same source.
The target of test [29] is T3, purified recombinant MHC II protein, …. The source holds these as a separate data set.
For test [30], the target named is T5, purified recombinant MHC II protein, …. This is another data set of the same source.
Test [31] has as its target T1, purified recombinant MHC II protein, …. This is another data set of the same source.
For test [32], the target named is T6, purified recombinant MHC II protein, …. This is another data set of the same source.
Test [33] addresses T2, purified recombinant MHC II protein, …. The source holds these as a separate data set.
Test [34] deals with T7, purified recombinant MHC II protein, …. This is another data set of the same source.
Test [35] concerns the target T8, purified recombinant MHC II protein, …. This is another data set of the same source.
For test [36], the target named is T3, purified recombinant MHC II protein, …. This is another data set of the same source.
Test [37] concerns the target T4, purified recombinant MHC II protein, …. This is another data set of the same source.
The target in test [38] is T5, purified recombinant MHC II protein, …. The source holds these as a separate data set.

The record followed here is patent US20210395713A1 (TRUSTEES OF DARTMOUTH COLLEGE, published 2021).

Read-outs that look alike come from different tables or passages of the source. Bounds are passed on as bounds.

B1: cluster 5 peptide with Ser124Gly (peptide)
peptide: HLHFQRMVNSFGNPTAQ
notes: synthetic mutated peptide of the lysostaphin catalytic domain; also called S124G
A word on the IC50: it is the concentration at which inhibition is half-maximal. Turning to B1, the IC50 is less than 0.01 µM in test [1]; 151 µM in test [2]; less than 0.01 µM in [3]; 0.04 µM in test [4]; 0.3 µM in test [5].

B2: cluster 3 wild-type (C3WT) epitope peptide (peptide)
peptide: GVHRQWYMHLSKYNVKVGD
With B2, the IC50 is 9.51 µM in test [6]; 54.7 µM in test [7]; 0.41 µM in [8]; 155 µM in test [9]; 0.14 µM in test [10]; less than 0.01 µM in test [11]. In addition, the IC50 in test [12] is 38.1 µM; in test [13], less than 0.01 µM.

B3: cluster 3 peptide with Leu83Met (peptide)
peptide: GVHRQWYMHMSKYNVKVGD
notes: synthetic mutated peptide of the lysostaphin catalytic domain; also called L83M
Take B3: the IC50 worked out at 4.42 µM in [6]; 27.4 µM in test [7]; 2.09 µM in test [8]; 115 µM in test [9]; 0.37 µM in test [10]; 32.4 µM in test [11]. Moreover, the IC50 in test [13] came to 0.11 µM. The “fold decrease in binding against C3WT” value was more than 2 fold in test [14], approximately 5 fold in test [15], 2000 fold in [16] and 10 fold in [17].

B4: cluster 2 wild-type (C2WT) epitope peptide (peptide)
peptide: GVDFFMNIGTPVKAISSGKIV
B4: the IC50 was 2.37 µM in [18]; 104 µM in [19]; 8.19 µM in test [20]; 60.1 µM in test [21]; 0.22 µM in [22]; 13.7 µM in test [23]. Further, the IC50 in test [24] amounted to 10.1 µM.

B5: cluster 2 peptide with Ile41Glu/Lys46His (peptide)
peptide: GVDFFMNEGTPVHAISSGKIV
notes: synthetic mutated peptide of the lysostaphin catalytic domain; also called 41_46
In the case of B5, the IC50 in test [18] was less than 0.01 µM; in test [20] it was 14.3 µM; in [22], less than 0.01 µM; in test [23], less than 0.01 µM; in test [24], less than 0.01 µM.

B6: cluster 2 peptide with Ile41Glu (peptide)
peptide: GVDFFMNEGTPVKAISSGKIV
notes: synthetic mutated peptide of the lysostaphin catalytic domain; also called I41E
As for B6, the IC50 in [18] stood at 7.44 µM; in test [19] it was 143 µM; in [20], 7.51 µM; in [22] it was 0.59 µM; in [23], 3.48 µM; in test [24], 146 µM.

B7: cluster 2 peptide with Lys46His (peptide)
peptide: GVDFFMNIGTPVHAISSGKIV
notes: synthetic mutated peptide of the lysostaphin catalytic domain; also called K46H
For B7, the IC50 in [18] was found to be 2.55 µM; in test [19], 212 µM; in [20] it was 4.46 µM; in [21], 152 µM; in test [25], 87.5 µM; in [22] it was 0.49 µM. The results for the IC50 in test [23] and in test [24] were 1.65 µM and 18.3 µM, respectively. Further, the “fold decrease in binding against C2WT” value in [16] came out at 2 fold.

B8: cluster 1 wild-type (C1WT) epitope peptide (peptide)
peptide: SAQWLNNYKKGYGYG
Turning to B8, the IC50 in test [26] came to 102 µM; in test [27], 137 µM; in [28], 13.7 µM; in test [29], 215 µM; in test [30], 0.94 µM.

B9: cluster 1 peptide with Asn13His (peptide)
peptide: SAQWLNHYKKGYGYG
notes: synthetic mutated peptide of the lysostaphin catalytic domain
On to B9, for which the IC50 was found to be 41.6 µM in [27] and 4.13 µM in test [30].

B10: cluster 1 peptide with Asn12Gly (peptide)
peptide: SAQWLGNYKKGYGYG
notes: as for B9
Consider B10, for which the IC50 was 58.6 µM in test [28], less than 0.01 µM in test [29] and 5.16 µM in test [30].

B11: cluster 4 wild-type (C4WT) epitope peptide (peptide)
peptide: DYVKAGQIIGWSGSTGY
B11: the IC50 was less than 0.01 µM in test [31]; 78.5 µM in test [32]; 92.9 µM in test [33]; 31.4 µM in test [34]; 62.5 µM in test [35]; less than 0.01 µM in [36]. For the same molecule, the figures for the IC50 in test [37] and in test [38] were less than 0.01 µM and 1.69 µM, respectively.

B12: cluster 4 peptide with Tyr93His (peptide)
peptide: DHVKAGQIIGWSGSTGY
notes: synthetic mutated peptide of the lysostaphin catalytic domain; also called Y93H
For B12, the values for the IC50 in test [31], in [33] and in test [36] were less than 0.01 µM, 182 µM and 103 µM, respectively.

B13: cluster 4 peptide with Tyr93His/Lys95Glu/Ile99Gln (peptide)
peptide: DHVEAGQQIGWSGSTGY
notes: synthetic mutated peptide of the lysostaphin catalytic domain; also called 939599
In the case of B13, the 50% inhibitory concentration (IC50) in test [33] turned out to be 179 µM.

B14: cluster 4 peptide with Ile99Gln (peptide)
peptide: DYVKAGQQIGWSGSTGY
notes: synthetic mutated peptide of the lysostaphin catalytic domain; also called I99Q
With B14, the IC50 is 66.1 µM in [31]; 93.1 µM in test [33]; 31.7 µM in test [36]; 6.16 µM in test [37]; 24.3 µM in [38].

B15: cluster 4 peptide with Lys95Glu/Ile99Gln (peptide)
peptide: DYVEAGQQIGWSGSTGY
notes: synthetic mutated peptide of the lysostaphin catalytic domain; also called 95-99
On to B15, for which the IC50 is less than 0.01 µM in test [31]; 104 µM in test [33]; less than 0.01 µM in test [36]; 25.8 µM in [37]; 25.4 µM in [38].

B16: cluster 4 peptide with Lys95Glu (peptide)
peptide: DYVEAGQIIGWSGSTGY
notes: synthetic mutated peptide of the lysostaphin catalytic domain; also called K95E
Take B16: the IC50 in [31] is less than 0.01 µM; in [32], 25.7 µM; in test [33], 4.81 µM; in test [34], 1.9 µM; in test [35], 12.2 µM; in test [36], less than 0.01 µM. In addition, the IC50 was less than 0.01 µM in [37] and 6.32 µM in test [38].

B17: cluster 4 peptide with Tyr93His/Lys95Glu (peptide)
peptide: DHVEAGQIIGWSGSTGY
notes: synthetic mutated peptide of the lysostaphin catalytic domain; also called 93_95
Turning to B17, the IC50 in [31] came to 0.06 µM; in [32], 18.9 µM; in test [33] it was 24.9 µM; in test [34], 110 µM; in test [35] it was 30.9 µM; in [36], 9.98 µM. Also, the IC50 in test [37] turned out to be 25.5 µM; in test [38] it was 25 µM.

B18: cluster 4 peptide with Tyr93His/Ile99Gln (peptide)
peptide: DHVKAGQQIGWSGSTGY
notes: synthetic mutated peptide of the lysostaphin catalytic domain; also called 93_99
As for B18, the IC50 in test [31] was less than 0.01 µM; in test [33], 60.5 µM; in test [36] it was less than 0.01 µM; in [37] it was less than 0.01 µM.
